This is an account of results in patent publication US20210388110A1 (published 2021).

One assay deals with T1, soluble human CD3ε chain (human, UniProt P07766 23-126, limits assumed).
T1 construct: the text says soluble human CD3ε chain; also called human CD3 epsilon chain
As to the kind of experiment: SPR (Biacore).

The target in the next assay is T2, soluble human GPC3 (human, UniProt P51654 25-563, limits assumed).
T2 construct: soluble human GPC3 as analyte; also called glypican 3
Briefly: SPR (Biacore), soluble human GPC3. On the technique in general: In SPR one partner is held on a chip, and binding of the other changes the refractive index at the surface.

Where a chain is given by its changes, count along the chain named.

Broadly, the Kd is the constant that tells how readily two partners part at equilibrium. A low value points to tighter binding.

T2 sequence (P51654 other isoform, or with tags, fused parts or gaps limits assumed, form in doubt): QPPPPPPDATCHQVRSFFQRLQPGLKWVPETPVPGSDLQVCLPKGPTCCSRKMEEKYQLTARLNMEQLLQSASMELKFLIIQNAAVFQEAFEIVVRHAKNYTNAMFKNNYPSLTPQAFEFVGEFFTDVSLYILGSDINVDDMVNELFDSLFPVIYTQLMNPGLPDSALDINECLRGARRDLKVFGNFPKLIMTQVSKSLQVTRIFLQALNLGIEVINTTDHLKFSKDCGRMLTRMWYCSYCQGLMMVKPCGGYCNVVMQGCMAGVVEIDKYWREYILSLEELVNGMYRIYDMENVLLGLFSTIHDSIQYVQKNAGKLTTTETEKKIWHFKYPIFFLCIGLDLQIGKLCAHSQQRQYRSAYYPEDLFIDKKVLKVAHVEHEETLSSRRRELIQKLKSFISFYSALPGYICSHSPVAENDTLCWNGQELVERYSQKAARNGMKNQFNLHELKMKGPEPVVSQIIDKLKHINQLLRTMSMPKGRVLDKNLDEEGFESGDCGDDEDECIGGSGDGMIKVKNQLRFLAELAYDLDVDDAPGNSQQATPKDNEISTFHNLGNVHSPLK
T1 sequence (P07766 23-126 limits assumed): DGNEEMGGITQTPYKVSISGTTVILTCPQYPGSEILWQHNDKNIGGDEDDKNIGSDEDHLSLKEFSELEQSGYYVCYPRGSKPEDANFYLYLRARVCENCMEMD

B1: TR01H040-E22Hh/none-Hi-Kn010G3/L0000-k0 (antibody, human IgG1, kappa, L234A L235A, N297A)
heavy: QVQLVESGGGLVQPGRSLRLSCAASGFTFSNAWMHWVRQAPGKGLEWVAQIKDKSQNYATYYAESVKGRFTISRADSKNSIYLQMNSLKTEDTAVYYCRYVHYSASYGVDAWGQGTTVTVSSASTKGPSVFPLAPSSKSTSGGTAALGCLVKDYFPEPVTVSWNSGALTSGVHTFPAVLQSSGLYSLSSVVTVPSSSLGTQTYICNVNHKPSNTKVDKKVEPKSCDKTHTCPPCPAPEAAGGPSVFLFPPKPKDTLMISRTPEVTCVVVDVSHEDPEVKFNWYVDGVEVHNAKTKPREEQYASTYRVVSVLTVLHQDWLNGKEYKCKVSNKALPAPIEKTISKAKGQPREPQVYTLPPSRCELTKNQVSLSCAVKGFYPSDIAVEWESNGQPENNYKTTPPVLDSDGSFFLVSKLTVDKSRWQQGNVFSCSVMHEALHNHYTQKSLSLSPDYKDDDDK
chain: EPKSSDKTHTCPPCPAPELLGGPSVFLFPPKPKDTLMISRTPEVTCVVVDVSHEDPEVKFNWYVDGVEVHNAKTKPREEQYNSTYRVVSVLTVLHQDWLNGKEYKCKVSNKALPAPIEKTISKAKGQPREPQVCTLPPSRDELTKNQVSLWCLVKGFYPSDIAVEWESNGQPENNYKTTPPVLDSDGSFFLYSKLTVDKSRWQQGNVFSCSVMHEALHNRYTQKSLSLSP
light: DIVMTQSPLSLPVTPGEPASISCRSSQSLVHSNRNTYLHWYQQKPGQAPRLLIYKVSNRFSGVPDRFSGSGSGTDFTLKISRVEAEDVGVYYCGQGTQVPYTFGQGTKLEIKRTVAAPSVFIFPPSDEQLKSGTASVVCLLNNFYPREAKVQWKVDNALQSGNSQESVTEQDSKDSTYSLSSTLTLSKADYEKHKVYACEVTHQGLSSPVTKSFNRGEC
notes: single-arm
The molecule B1 came in with a Kd with soluble human CD3ε chain of 36 nM.

B2: H0610-G1dh/none-Hi-Kn010G3/L0000vk1-k0 (antibody, human IgG1, kappa)
heavy: not shown
chain: B1 chain
light: DIQMTQSPSSLSASVGDRVTITCRSSQSLVHSNRNTYLHWYQQKPGKAPKLLIYKVSNRFSGVPSRFSGSGSGTDFTFTISSLQPEDIATYYCGQGTQVPYTFGQGTKVEIKRTVAAPSVFIFPPSDEQLKSGTASVVCLLNNFYPREAKVQWKVDNALQSGNSQESVTEQDSKDSTYSLSSTLTLSKADYEKHKVYACEVTHQGLSSPVTKSFNRGEC
notes: single-arm (one Fab)
B2 had a Kd with soluble human GPC3 of 2.16 nM.

B3: H0610-G1dh/none-Hi-Kn010G3/L0262-k0 (antibody, human IgG1, kappa)
heavy: not shown
chain: B1 chain
light: B1 light with S28P, L29P, G94A
notes: single-arm (one Fab)
Regarding B3, in the assay with soluble human GPC3, the Kd came to 0.211 nM.

B4: H0610-G1dh/none-Hi-Kn010G3/TR01L008-k0 (antibody, human IgG1, kappa)
heavy: not shown
chain: B1 chain
light: B1 light with R24Q, S25A, Q27E, S61R
notes: single-arm (one Fab)
In the assay with soluble human GPC3, B4 showed a Kd of 3.48 nM.

B5: TR01H014-E22Hh/none-Hi-Kn010G3/L0000-k0 (antibody, human IgG1, kappa, L234A L235A, N297A)
heavy: B1 heavy with D53G, Q56N, E64P, S104G, S106Y, A111I
chain: B1 chain
light: B1 light
notes: single-arm
The molecule B5 gave a Kd with soluble human CD3ε chain of 38.7 nM.

B6: TR01H015-E22Hh/none-Hi-Kn010G3/TR01L001-k0 (antibody, human IgG1, kappa, L234A L235A, N297A)
heavy: B1 heavy with D53G, Q56N, A111I
chain: B1 chain
light: B1 light with R24Q, S25A, Q27E
notes: single-arm
For B6, in the assay with soluble human CD3ε chain, the Kd is 65.6 nM.

B7: H0610-G1dh/none-Hi-Kn010G3/L0268-k0 (antibody, human IgG1, kappa)
heavy: not shown
chain: B1 chain
light: B1 light with L29P, L38I, H39Q, G94V
notes: single-arm (one Fab)
Consider B7, for which binding with soluble human GPC3 was characterised by a dissociation constant (Kd) of 0.0169 nM.

B8: TR01H015-E22Hh/none-Hi-Kn010G3/TR01L003-k0 (antibody, human IgG1, kappa, L234A L235A, N297A)
heavy: B1 heavy with D53G, Q56N, A111I
chain: B1 chain
light: B1 light with L109V, K112E
notes: single-arm
As for B8, the Kd with soluble human CD3ε chain came out at 63.4 nM.

B9: H0610-G1dh/none-Hi-Kn010G3/TR01L018-k0 (antibody, human IgG1, kappa)
heavy: not shown
chain: B1 chain
light: B1 light with R24Q, S25A, Q27E, L29P, Q42L, A48S, R50Q
notes: single-arm (one Fab)
B9 registered a Kd with soluble human GPC3 of 2.17 nM.

B10: H0610-G1dh/none-Hi-Kn010G3/TR01L010-k0 (antibody, human IgG1, kappa)
heavy: not shown
chain: B1 chain
light: B1 light with S61R, L109V, K112E
notes: single-arm (one Fab)
On to B10, for which binding in the assay with soluble human GPC3 was characterised by a dissociation constant (Kd) of 2.92 nM.

B11: H0610-G1dh/none-Hi-Kn010G3/TR01L020-k0 (antibody, human IgG1, kappa)
heavy: not shown
chain: B1 chain
light: B1 light with R24Q, S25A, Q27E, L29P, L38I, H39Q, Q42L, A48S, R50Q, G94Y
notes: single-arm (one Fab)
With B11, in the assay with soluble human GPC3, the Kd stood at 0.0224 nM.

B12: H0610-G1dh/none-Hi-Kn010G3/L0267-k0 (antibody, human IgG1, kappa)
heavy: not shown
chain: B1 chain
light: B1 light with S25P, L29P, G94V
notes: single-arm (one Fab)
For the molecule B12, the dissociation constant (Kd) with soluble human GPC3 is 0.179 nM.

B13: H0610-G1dh/none-Hi-Kn010G3/L0265-k0 (antibody, human IgG1, kappa)
heavy: not shown
chain: B1 chain
light: B1 light with L29P, L38I, H39Q, G94A
notes: single-arm (one Fab)
B13 displayed a dissociation constant Kd with soluble human GPC3 of 0.0087 nM.

B14: CE115HA192-E22Hh//-Hi-Kn010G3/L0000-k0 (antibody, human IgG1, kappa, L234A L235A, N297A)
heavy: B1 heavy with L11V, D53A, Q56N, A75D, I81L, S104Y, S106Y
chain: B1 chain
light: B1 light
notes: single-arm
For B14, in the assay with soluble human CD3ε chain, the Kd was determined as 50.5 nM.

B15: TR01H015-E22Hh/none-Hi-Kn010G3/TR01L005-k0 (antibody, human IgG1, kappa, L234A L235A, N297A)
heavy: B1 heavy with D53G, Q56N, A111I
chain: B1 chain
light: B1 light with Q42L, A48S, R50Q, L109V, K112E
notes: single-arm
In the assay with soluble human CD3ε chain, B15 showed a Kd of 65.3 nM.

B16: TR01H013-E22Hh/none-Hi-Kn010G3/L0000-k0 (antibody, human IgG1, kappa, L234A L235A, N297A)
heavy: B1 heavy with D53G, S104G, S106Y, A111I
chain: B1 chain
light: B1 light
notes: single-arm
Regarding B16, in the assay with soluble human CD3ε chain, the Kd is 49.4 nM.

B17: TR01H015-E22Hh/none-Hi-Kn010G3/L0000-k0 (antibody, human IgG1, kappa, L234A L235A, N297A)
heavy: B1 heavy with D53G, Q56N, A111I
chain: B1 chain
light: B1 light
notes: single-arm
As for B17, the Kd with soluble human CD3ε chain is 61.3 nM.

B18: H0610-G1dh/none-Hi-Kn010G3/TR01L016-k0 (antibody, human IgG1, kappa)
heavy: not shown
chain: B1 chain
light: B1 light with L29P, Q42L, A48S, R50Q, G94Y
notes: single-arm (one Fab)
B18: binding with soluble human GPC3 was put at a Kd of 1.08 nM.

B19: TR01H012-E22Hh/none-Hi-Kn010G3/L0000-k0 (antibody, human IgG1, kappa, L234A L235A, N297A)
heavy: B1 heavy with D53A, Q56N, S104Y, A105Y, A111I
chain: B1 chain
light: B1 light
notes: single-arm
In the case of B19, the Kd with soluble human CD3ε chain was found to be 7.94 nM.

B20: CE115HA251-E22Hh//-Hi-Kn010G3/L0000-k0 (antibody, human IgG1, kappa, L234A L235A, N297A)
heavy: B1 heavy with L11V, D53A, Q56N, A75D, I81L, S104Y, A105Y, S106Y
chain: B1 chain
light: B1 light
notes: single-arm
The molecule B20 registered a Kd with soluble human CD3ε chain of 22.3 nM.

B21: H0610-G1dh/none-Hi-Kn010G3/TR01L017-k0 (antibody, human IgG1, kappa)
heavy: not shown
chain: B1 chain
light: B1 light with L29P, L38I, H39Q, Q42L, A48S, R50Q, G94Y
notes: single-arm (one Fab)
In the assay with soluble human GPC3, B21 registered a Kd of 0.00827 nM.

B22: TR01H007-E22Hh/none-Hi-Kn010G3/L0000-k0 (antibody, human IgG1, kappa, L234A L235A, N297A)
heavy: B1 heavy with D53S, Q56N, S104G, S106Y, A111I
chain: B1 chain
light: B1 light
notes: single-arm
For the molecule B22, in the assay with soluble human CD3ε chain, the dissociation constant Kd was 21.7 nM.

B23: H0610-G1dh/none-Hi-Kn010G3/L0266-k0 (antibody, human IgG1, kappa)
heavy: not shown
chain: B1 chain
light: B1 light with S28P, L29P, G94V
notes: single-arm (one Fab)
In the assay with soluble human GPC3, B23 displayed a Kd of 0.213 nM.

B24: H0610-G1dh/none-Hi-Kn010G3/L0264-k0 (antibody, human IgG1, kappa)
heavy: not shown
chain: B1 chain
light: B1 light with S25P, L29P, G94A
notes: single-arm (one Fab)
As for B24, binding in the assay with soluble human GPC3 was put at a Kd of 0.219 nM.

B25: TR01H003-E22Hh//-Hi-Kn010G3/L0000-k0 (antibody, human IgG1, kappa, L234A L235A, N297A)
heavy: B1 heavy with L11V, D53A, Q56N, A75D, I81L, Y100R, S104G, S106Y
chain: B1 chain
light: B1 light
notes: single-arm
Take B25: in the assay with soluble human CD3ε chain, the Kd came to 40.3 nM.

B26: CE115HA252-E22Hh//-Hi-Kn010G3/L0000-k0 (antibody, human IgG1, kappa, L234A L235A, N297A)
heavy: B1 heavy with L11V, D53A, Q56N, A59K, T60K, A75D, I81L, S104Y, A105Y, S106Y
chain: B1 chain
light: B1 light
notes: single-arm
For B26, in the assay with soluble human CD3ε chain, the Kd was determined as 9.48 nM.

B27: H0610-G1dh/none-Hi-Kn010G3/TR01L015-k0 (antibody, human IgG1, kappa)
heavy: not shown
chain: B1 chain
light: B1 light with L29P, Q42L, A48S, R50Q
notes: single-arm (one Fab)
On to B27, for which the Kd with soluble human GPC3 turned out to be 2.16 nM.

B28: H0610-G1dh/none-Hi-Kn010G3/TR01L011-k0 (antibody, human IgG1, kappa)
heavy: not shown
chain: B1 chain
light: B1 light with R24Q, S25A, Q27E, S61R, L109V, K112E
notes: single-arm (one Fab)
For the molecule B28, in the assay with soluble human GPC3, the Kd was found to be 4.02 nM.

B29: H0610-G1dh/none-Hi-Kn010G3/TR01L019-k0 (antibody, human IgG1, kappa)
heavy: not shown
chain: B1 chain
light: B1 light with R24Q, S25A, Q27E, L29P, Q42L, A48S, R50Q, G94Y
notes: single-arm (one Fab)
For the molecule B29, binding with soluble human GPC3 was characterised by a dissociation constant (Kd) of 1.15 nM.

B30: H0610-G1dh/none-Hi-Kn010G3/L0263-k0 (antibody, human IgG1, kappa)
heavy: not shown
chain: B1 chain
light: B1 light with L29P, L38I, G94A
notes: single-arm (one Fab)
B30 had a dissociation constant Kd with soluble human GPC3 of 0.564 nM.

B31: CE115HA121-E22Hh//-Hi-Kn010G3/L0000-k0 (antibody, human IgG1, kappa, L234A L235A, N297A)
heavy: B1 heavy with L11V, Q50L, D53A, Q56N, A75D, I81L, S104G, S106Y
chain: B1 chain
light: B1 light
notes: single-arm
Consider B31, for which, in the assay with soluble human CD3ε chain, the Kd worked out at 67.6 nM.

B32: TR01H006-E22Hh/none-Hi-Kn010G3/L0000-k0 (antibody, human IgG1, kappa, L234A L235A, N297A)
heavy: B1 heavy with D53A, S104G, S106Y, A111I
chain: B1 chain
light: B1 light
notes: single-arm
As to B32, the Kd with soluble human CD3ε chain is 23 nM.

B33: H0610-G1dh/none-Hi-Kn010G3/TR01L009-k0 (antibody, human IgG1, kappa)
heavy: not shown
chain: B1 chain
light: B1 light with Q42L, A48S, R50Q, S61R
notes: single-arm (one Fab)
In the assay with soluble human GPC3, B33 had a Kd of 3.81 nM.

B34: H0610-G1dh/none-Hi-Kn010G3/L0269-k0 (antibody, human IgG1, kappa)
heavy: not shown
chain: B1 chain
light: B1 light with L29P, L38I, H39Q
notes: single-arm (one Fab)
As to B34, the Kd with soluble human GPC3 is 0.459 nM.

B35: H0610-G1dh/none-Hi-Kn010G3/TR01L012-k0 (antibody, human IgG1, kappa)
heavy: not shown
chain: B1 chain
light: B1 light with Q42L, A48S, R50Q, S61R, L109V, K112E
notes: single-arm (one Fab)
In the assay with soluble human GPC3, B35 had a Kd of 4.25 nM.
